Data: PMC6004577

Target: Acanthamoeba castellanii actin (amoeba actin), filaments (Acanthamoeba castellanii)

Chain of mDelFCΔ20, mDelFC lacking the last 20 residues (Q0QWG9 805-1183, stated change not applied): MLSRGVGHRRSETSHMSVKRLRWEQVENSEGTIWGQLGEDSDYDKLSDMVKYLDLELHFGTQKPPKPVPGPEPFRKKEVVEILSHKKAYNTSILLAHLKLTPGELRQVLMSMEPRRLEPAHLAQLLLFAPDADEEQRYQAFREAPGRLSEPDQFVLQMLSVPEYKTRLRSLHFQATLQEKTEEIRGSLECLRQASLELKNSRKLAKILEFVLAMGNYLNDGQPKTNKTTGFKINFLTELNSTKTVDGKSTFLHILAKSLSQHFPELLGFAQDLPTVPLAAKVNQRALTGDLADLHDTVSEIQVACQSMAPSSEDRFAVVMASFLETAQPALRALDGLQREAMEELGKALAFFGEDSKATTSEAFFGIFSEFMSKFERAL

inhibition of barbed-end elongation in seeded elongation assays: 7 nM
Substance: mDelFCΔ20, mDelFC lacking the last 20 residues (from UniProt Q0QWG9-2 626-1004) (domain or fragment)
